Source: patent US20110104667

Molecular target: infectious prion protein PrPCWD (CWD prion, elk strain E2) (Cervus canadensis (elk)?) (UniProt P67986)
Assay: EMSA
Design: unit not given here

Sequence of infectious prion protein PrPCWD (CWD prion, elk strain E2) (Cervus canadensis (elk)?) (P67986 25-233): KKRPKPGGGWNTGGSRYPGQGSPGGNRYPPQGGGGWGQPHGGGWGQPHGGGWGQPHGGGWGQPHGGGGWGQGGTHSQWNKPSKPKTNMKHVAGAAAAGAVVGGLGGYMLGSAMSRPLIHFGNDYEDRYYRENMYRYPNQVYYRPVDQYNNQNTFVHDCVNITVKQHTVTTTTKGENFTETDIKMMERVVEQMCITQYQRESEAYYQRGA

Sequence: TACGACTCACTATAGGGATCCNNNNNNNNNNNNNNNNNNNNNNNNNNNNGAATTCCCTTTAGTGAGGGTT [70-mer DNA randomer library, PrPCWD-retained fraction]
- Kd: 6e-05
